One substance from patent US20240318157A1, “Neurotensin Variants And Tagged Proteins Comprising Neurotensin Or Sortilin Propeptide” (Amicus Therapeutics, Inc., priority 2021, published 2024) can be followed below.

The target in the assay is T1, extracellular soluble domain of sortilin, residues 78-755 (Homo sapiens, UniProt Q99523).
T1 construct: the extracellular soluble domain of sortilin, residues 78-755, was expressed in Expi293F cell line; made in house; host or cells: Expi293F
Briefly: microplate binding assay, enzymic activity of sortilin-bound GAA tagged protein. The source says: FIG. 2. α-D-glucopyranoside activity of sortilin-bound GAA tagged protein. Extracellular soluble sortilin domain with a C-terminal TwinStrep tag for immobilized on a 96-well microplate. […] A fluorogenic 4-methylumbelliferyl-α-D-glucopyranoside substrate was used to measure α-D-glucopyranoside activity of the sortilin-bound tagged proteins.
For a microplate binding assay, the extracellular soluble domain of sortilin, residues 78-755, was expressed in Expi293F cell line (using Expi293 Expression System; Thermo Fisher, A14635) with a C-terminal TwinStrep affinity tag. Harvests were collected after 5 days. Conditioned media was incubated with StrepTactin XT coated microplates (IBA, 2-4101-001) for 1 hour to immobilize sortilin to the plates. After several washes, wells coated with sortilin were incubated with varying doses of NT-GAA, GAA-NT or GAA diluted into PBS for 30 minutes. The unbound protein was then washed away. The α-D-glucopyranoside activity of the bound GAA tagged protein was measured using a fluorogenic substrate, 4-methylumbelliferyl-α-D-glucopyranoside, at pH 4.8. […] The inflection point in both binding curves indicates bivalency of sortilin for neurotensin.

For the substance “GAA: GAA with no NT tag; lysosomal alpha-glucosidase (RefSeq: NM_000152.5) [reference compound]”, where the note is “immobilized sortilin, 30 minutes in PBS, 4-methylumbelliferyl-α-D-glucopyranoside, pH 4.8, FIG. 2”, the “α-D-glucopyranoside activity of sortilin-bound protein” value was “no α-D-glucopyranoside activity”. Further, the binding to sortilin result (inferred from absence of activity in sortilin-coated wells, FIG. 2) is recorded as “did not bind to sortilin”.
